Data reported in publication PMC3197140.

Biological target: ^15N labeled FLNA repeat 21

A CBRM1/5 binding (αMβ2 activation) on human neutrophils treated with 50 µM peptide for 5 min at 37°C, flow cytometry of 2 fold was found for MASKPEKRVASSVFITLAPPRRDVRRRRRRRRR [WTMigfilinR9 peptide] in this work.
